Measurements taken from patent US20240408238.

System: AcrIIC5Smu

## Nme1Cas9-Nme2Cas9PID chimera (Nme1Cas9 with its PID replaced by that of Nme2Cas9)
  in vitro DNA cleavage by the PID-swapped chimera in the presence of Acr (10-fold ratio; ~30x higher Cas9 concentration): No inhibition was observed by AcrIIC5Smu on this protein chimera
